Assay results from paper PMC4191429, “Interactions of the yeast mitochondrial RNA polymerase with the +1 and +2 promoter bases dictate transcription initiation efficiency”.

B1: 15S rRNA promoter (+1+2 AA), 2-AP at -1 template (dsDNA)
DNA 1: ATAATTTATTTATTATTATATAAGTAATAAATAATAGTTTTATCT
DNA 2: AGATAAAACTATTATTTATTACTTATATAATAATAAATAAATTAT
modifications: 2-aminopurine at -1 template
B2: 21S rRNA promoter (+1+2 AG), 2-AP at -1 template (dsDNA)
DNA 1: TATTATTATTATTATATATATAAGTAGTAAAAAGTAGAATAATCT
DNA 2: AGATTATTCTACTTTTTACTACTTATATATATAATAATAATAATA
modifications: 2-aminopurine at -1 template

How the values were obtained:
Conditions in all cases: protein: recombinant;recombinant; tags: Ni2+ column purified; copies: 1;1; label: 2-aminopurine
[1] = biological target: T1, Rpo41 (mitochondrial RNA polymerase);Mtf1 (mitochondrial transcription initiation factor) (Saccharomyces cerevisiae;Saccharomyces …, UniProt P13433;P14908 1-1351;2-341, |); assay: 2-aminopurine fluorescence; no NTP; 2-AP assay buffer, salt, pH and temperature not in the material (transcription assays at 25 C)
[2] = biological target: T1, Rpo41 (mitochondrial RNA …); assay: 2-aminopurine fluorescence; ATP; 2-AP assay buffer, salt, pH and temperature not in the material (transcription assays at 25 C)
[3] = biological target: T1, Rpo41 (mitochondrial RNA …); assay: 2-aminopurine fluorescence; ATP+GTP; 2-AP assay buffer, salt, pH and temperature not in the material (transcription assays at 25 C)

T1 sequence (P13433 whole entry, chain 1 of 2): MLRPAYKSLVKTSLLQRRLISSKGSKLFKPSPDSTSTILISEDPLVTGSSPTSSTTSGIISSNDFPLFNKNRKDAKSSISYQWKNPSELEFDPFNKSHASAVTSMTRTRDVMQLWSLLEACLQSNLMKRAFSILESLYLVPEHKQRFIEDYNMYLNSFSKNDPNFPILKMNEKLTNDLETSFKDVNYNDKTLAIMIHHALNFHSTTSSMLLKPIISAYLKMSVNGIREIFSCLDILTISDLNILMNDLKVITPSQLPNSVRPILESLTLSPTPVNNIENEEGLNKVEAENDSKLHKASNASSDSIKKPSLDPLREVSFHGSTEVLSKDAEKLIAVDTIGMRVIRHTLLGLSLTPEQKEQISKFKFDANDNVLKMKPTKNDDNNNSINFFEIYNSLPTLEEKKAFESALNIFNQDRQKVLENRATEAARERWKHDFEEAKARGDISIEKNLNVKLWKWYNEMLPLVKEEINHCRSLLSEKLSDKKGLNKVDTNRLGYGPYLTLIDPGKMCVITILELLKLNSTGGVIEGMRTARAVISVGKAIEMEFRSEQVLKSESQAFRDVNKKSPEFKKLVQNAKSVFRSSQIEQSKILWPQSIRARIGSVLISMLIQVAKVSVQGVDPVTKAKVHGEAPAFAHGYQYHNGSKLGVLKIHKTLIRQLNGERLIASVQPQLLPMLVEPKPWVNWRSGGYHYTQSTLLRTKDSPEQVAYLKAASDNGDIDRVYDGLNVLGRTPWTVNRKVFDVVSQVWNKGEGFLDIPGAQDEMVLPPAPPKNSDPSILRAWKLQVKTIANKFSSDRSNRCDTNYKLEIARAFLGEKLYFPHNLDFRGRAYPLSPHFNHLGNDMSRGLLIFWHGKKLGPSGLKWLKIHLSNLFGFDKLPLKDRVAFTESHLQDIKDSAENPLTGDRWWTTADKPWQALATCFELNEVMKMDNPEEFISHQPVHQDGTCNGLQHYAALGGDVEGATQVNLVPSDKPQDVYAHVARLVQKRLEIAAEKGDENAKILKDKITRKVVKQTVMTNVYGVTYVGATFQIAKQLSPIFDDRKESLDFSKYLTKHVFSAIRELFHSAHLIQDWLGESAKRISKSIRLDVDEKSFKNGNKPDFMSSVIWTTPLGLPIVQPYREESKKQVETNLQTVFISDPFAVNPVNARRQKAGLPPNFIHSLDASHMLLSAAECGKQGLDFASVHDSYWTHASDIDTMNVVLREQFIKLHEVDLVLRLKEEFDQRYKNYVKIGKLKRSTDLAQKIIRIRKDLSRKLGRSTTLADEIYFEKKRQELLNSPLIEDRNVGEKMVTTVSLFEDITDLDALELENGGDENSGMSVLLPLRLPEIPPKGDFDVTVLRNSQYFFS
T1 sequence (P14908 2-341, chain 2 of 2): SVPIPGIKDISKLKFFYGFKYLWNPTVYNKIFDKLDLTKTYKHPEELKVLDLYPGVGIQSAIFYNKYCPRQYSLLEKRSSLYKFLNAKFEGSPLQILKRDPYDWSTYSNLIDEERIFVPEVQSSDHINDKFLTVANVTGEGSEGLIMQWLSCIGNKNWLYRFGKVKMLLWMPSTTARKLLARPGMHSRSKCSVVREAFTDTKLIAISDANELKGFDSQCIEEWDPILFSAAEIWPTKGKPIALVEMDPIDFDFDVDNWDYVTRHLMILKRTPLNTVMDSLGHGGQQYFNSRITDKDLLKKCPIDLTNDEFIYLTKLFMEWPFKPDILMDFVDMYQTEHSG

Row | Binder | binding signal [1] | binding signal [2] | binding signal [3]
1 | B1 | ~5 fold 2-AP fluorescence increase | ~4 further fold 2-AP fluorescence increase over the complex without NTP | –
2 | B2 | ~5 fold 2-AP fluorescence increase | – | ~4 further fold 2-AP fluorescence increase over the complex without NTP
